Measured values reported in US20230094162A1 (MacroGenics, published 2023).
Changes are numbered by the printed parent chain.

Columns and labels:
[1] = molecular target: T1, CD137 expressed on the cell surface (CHO/CD137 cells) (UniProt Q07011 24-255, limits assumed); experiment: flow cytometry (FACS) on CHO cells expressing CD137, MFI
T1 construct: whole, on cells; also called cell surface CD137; Jurkat-NF-κB-Luc reporter cells overexpressing CD137
Experimental: FACS analysis to evaluate the test articles for binding to cell surface CD137 was performed essentially as follows: 100 μL of CHO cells expressing CD137 (CHO/CD137) (1.0×10⁵ to 1×10⁶ cells/well) and 100 μL of serially diluted test article or control was added to each well of microtiter assay plate(s), mixed and incubated at RT for about 30 min. The cells were washed with FACS Buffer and secondary antibody (goat anti-human-APC, PE, or FITC) was then added to each well (1:1000), after which, the components were mixed and the wells were incubated at RT for about 30 min. Cells were washed and resuspended in 250 μL FACS Buffer and analyzed by flow cytometry (BD LSR Fortessa or FACSCanto II) for cell events collection. Data analysis were performed via FloJo v10.

[2] = molecular target: T2, PD-L1 expressed on the cell surface (CHO/PD-L1 cells) (UniProt Q9NZQ7 19-290); experiment: cell-based or functional assay
[3] = molecular target: T2, PD-L1 expressed on the cell surface …; experiment: cell-based or functional assay; remark: listed apart in the source
[4] = molecular target: T3, soluble PD-L1 fused to a His tag (shPD-L1) (UniProt Q9NZQ7 19-238, limits assumed); experiment: ELISA on plate-coated shPD-L1-his, anti-human kappa-HRP detection, RLU
T3 construct: the species of shPD-L1 is not written out; also called shPD-L1-his; not shown: His tag
Experimental: ELISA assays to evaluate the test articles for CD137 binding were performed essentially as follows: flat bottom maxisorb 96-well plates were coated with soluble human or cynomolgus monkey CD137 (the extracellular domain of human or cynomolgus monkey CD137 fused to a His tag (shCD137 His or scyCD137 His) or to a human Fc Region (shCD137 hFc or scyCD137 hFc)), each at 0.5 or 1 μg/mL. The plates were washed, blocked with PBS buffer containing 0.5% bovine serum albumin and 0.1% Tween20, and incubated with a test article (e.g., cell supernatants or purified mAb). For the hybridoma supernatants anti-CD137 antibody was utilized at 1.0 μg/mL and six three-fold serial dilutions. The amount of test article binding to the immobilized CD137 (human or cynomolgus monkey) was assessed using a goat anti-mouse IgG-HRP secondary antibody. All samples were analyzed on a plate reader (Victor 2 Wallac, Perkin Elmer) and EC50 values were calculated from dose-response curves by nonlinear regression analysis.
The binding of Fab fragments comprising different combinations of these substitutions to shPD-L1-his was evaluated by ELISA essentially as described above except a goat anti-human kappa-HRP secondary antibody was used.

[5] = molecular target: T2, PD-L1 expressed on the cell surface …; experiment: flow cytometry (FACS) on CHO cells expressing PD-L1, MFI
Experimental: FACS analysis to evaluate the test articles for binding to cell surface PD-L1 was performed essentially as follows: 100 μL of CHO cells expressing PD-L1 (CHO/PD-L1) (1.0×10⁵ to 1.0×10⁶ cells/well) and 100 μL of serially diluted test article was added to each well of microtiter assay plate(s), mixed and incubated at RT for about 30 min. The cells were washed with FACS Buffer and secondary antibody (goat anti-human-FITC, PE, or APC) was then added to each well, after which, the components were mixed and the wells were incubated at RT for about 30 min. Cells were washed and resuspended in 250 μL FACS Buffer and analyzed by flow cytometry (BD LSR Fortessa or FACSCanto II) for cell events collection. Data analysis were performed via FloJo v10.
Test articles were used at 10 μg/mL and five-fold serial dilutions for the FACS analysis and at 50 μg/mL and five-fold serial dilutions for the PD-L1 reporter assay.

T3 sequence (Q9NZQ7 19-238 limits assumed): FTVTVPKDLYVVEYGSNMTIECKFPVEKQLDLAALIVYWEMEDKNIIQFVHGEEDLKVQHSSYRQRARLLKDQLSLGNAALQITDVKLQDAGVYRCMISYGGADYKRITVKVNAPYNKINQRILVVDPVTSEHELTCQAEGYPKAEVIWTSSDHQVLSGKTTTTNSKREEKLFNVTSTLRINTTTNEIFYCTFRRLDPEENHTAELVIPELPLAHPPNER
T1 sequence (Q07011 24-255 limits assumed): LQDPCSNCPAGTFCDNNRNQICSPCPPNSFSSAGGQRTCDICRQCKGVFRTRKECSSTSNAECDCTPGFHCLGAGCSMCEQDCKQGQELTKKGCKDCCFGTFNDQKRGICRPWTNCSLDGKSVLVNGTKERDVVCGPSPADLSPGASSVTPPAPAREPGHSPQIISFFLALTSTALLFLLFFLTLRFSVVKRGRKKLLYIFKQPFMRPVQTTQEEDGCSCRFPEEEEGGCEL
T2 sequence (Q9NZQ7 19-290): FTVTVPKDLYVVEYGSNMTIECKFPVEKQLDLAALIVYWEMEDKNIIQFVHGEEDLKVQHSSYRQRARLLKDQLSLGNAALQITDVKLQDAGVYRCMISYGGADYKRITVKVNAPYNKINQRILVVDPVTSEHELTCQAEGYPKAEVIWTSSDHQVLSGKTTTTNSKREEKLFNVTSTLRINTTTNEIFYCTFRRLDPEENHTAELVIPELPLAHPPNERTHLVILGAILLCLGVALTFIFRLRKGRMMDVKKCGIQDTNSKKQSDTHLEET

B1: DART-A7 (bispecific antibody)
chain 1: DIQMTQSPSSLSASVGDRVTITCKASQDVNEAVAWYQQKPGKAPKLLIYWASTRHTGVPSRFSGSGSGTDFTLTISSLQPEDFATYYCQQHYNTPLTFGQGTKVEIKGGGSGGGGQVQLQESGPGLVKPSETLSLTCTVSGGSISSYYWSWIRQPPGKGLEWIGRIYTSGSTNYNPSLKSRVTMSVDTSKNQFSLKLSSVTAADTAVYYCARDGWYDEDYNYYGMDVWGQGTTVTVSSGGCGGGEVAACEKEVAALEKEVAALEKEVAALEKLEPKSADKTHTCPPCPAPEAAGGPSVFLFPPKPKDTLYITREPEVTCVVVDVSHEDPEVKFNWYVDGVEVHNAKTKPREEQYNSTYRVVSVLTVLHQDWLNGKEYKCKVSNKALPAPIEKTISKAKGQPREPQVYTLPPSREEMTKNQVSLTCLVKGFYPSDIAVEWESNGQPENNYKTTPPVLDSDGSFFLYSKLTVDKSRWQQGNVFSCSVMHEALHNHYTQKSLSLSPGK
chain 2: EIVMTQSPATLSLTPGERATLSCRASQSVSSNYLSWFQQIPGQAPRLLIYGASTRATGIPARFSGSGSGTDFTLTISSLQPEDFAVYYCQQDYDLPWTFGQGTKVEIKGGGSGGGGEVQLVESGGGLVQPGGSLRLSCAASGFTFSSYTMSWVRQAPGKGLEWVAYISIGGGTTYYPDTVKGRFTISRDNAKNSLYLQMNSLRAEDTAVYYCARAGLPYYFDYWGQGTLVTVSSGGCGGGKVAACKEKVAALKEKVAALKEKVAALKE
notes: Tetravalent; CD137 MAB-6(1.1) and hPD-L1 MAB-2(4.2)
How did the “EC50 (read off the curve)” value [1] turn out when B1 was run?
Its value is about 0.05 µg/mL.

What about the “EC50 (read off the curve)” value [2] of the same binder?
Its value is about 0.2 µg/mL.

And the “EC50 (read off the curve)” value [3]?
Its value is about 0.1 µg/mL.

B2: DART-A9 (bispecific antibody)
chain 1: B1 chain 1
chain 2: B1 chain 2 with F221G
For B2, which “EC50 (read off the curve)” value [3] is on record?
The value was about 0.1 µg/mL.

B3: DART-A8 (bispecific antibody)
chain 1: B1 chain 1
chain 2: B1 chain 2 with G170K
With B3 as the binder, how does the “EC50 (read off the curve)” value [3] read?
The value was about 0.1 µg/mL.

B4: DART-A10 (bispecific antibody)
chain 1: B1 chain 1
chain 2: B1 chain 2 with T14S, I40K
notes: Tetravalent; CD137 MAB-6(1.3) and hPD-L1 MAB-2(4.2)
Which “EC50 (read off the curve)” value [1] does the source give for B4 here?
Its value is about 0.05 µg/mL.

And the “EC50 (read off the curve)” value [2]?
The value was about 0.2 µg/mL.

B5: hPD-L1 MAB-2A (Fab) (Fab, V domains shown)
VH: EVQLVESGGGLVQPGGSLRLSCAASGFTFSGYTMSWVRQAPGKGLEWVAYISIKGGTTYYPDTVKGRFTISRDNAKNTLYLQMNSLKTEDTAVYYCARAGLPYYFDYWGQGTLVTVSS
VL: DIQMTQSPSSLSASVGDRVTITCKASQHVNTAVAWYQQKPGKAPKLLIYWASTRHTGVPSRFSGSGSGTDFTLTISSLQPEDFATYYCQQHYNTPLTFGQGTKVEIK
notes: Fab fragment
Does B5 bind [4]?
Result: binds

B6: hPD-L1 MAB-2E (Fab) (Fab, V domains shown)
VH: B5 VH with G31S
VL: B5 VL with H28L
notes: Fab fragment
Does B6 bind [4]?
Result: binds

B7: hPD-L1 MAB-2C (Fab) (Fab, V domains shown)
VH: B5 VH with A99Q, F105G
VL: B5 VL with H28L
notes: Fab fragment
Does B7 bind [4]?
Result: binds

B8: hPD-L1 MAB-2B (Fab) (Fab, V domains shown)
VH: B5 VH with A99G
VL: B5 VL with H28V
notes: Fab fragment
Does B8 bind [4]?
Result: binds

B9: hPD-L1 MAB-2D (Fab) (Fab, V domains shown)
VH: B5 VH with G31S, K54G, A99Q, F105G
VL: B5 VL with H28L, S52E
notes: Fab fragment
Does B9 bind [4]?
Result: binds

B10: TRIDENT-A (bispecific antibody, human IgG1, kappa, L234A L235A)
chain 1: EIVMTQSPATLSLTPGERATLSCRASQSVSSNYLSWFQQIPGQAPRLLIYGASTRATGIPARFSGSGSGTDFTLTISSLQPEDFAVYYCQQDYDLPWTFGQGTKVEIKGGGSGGGGQVQLQESGPGLVKPSETLSLTCTVSGGSISSYYWSWIRQPPGKGLEWIGRIYTSGSTNYNPSLKSRVTMSVDTSKNQFSLKLSSVTAADTAVYYCARDGWYDEDYNYYGMDVWGQGTTVTVSSGGCGGGEVAALEKEVAALEKEVAALEKEVAALEKGGGDKTHTCPPCPAPEAAGGPSVFLFPPKPKDTLYITREPEVTCVVVDVSHEDPEVKFNWYVDGVEVHNAKTKPREEQYNSTYRVVSVLTVLHQDWLNGKEYKCKVSNKALPAPIEKTISKAKGQPREPQVYTLPPSREEMTKNQVSLWCLVKGFYPSDIAVEWESNGQPENNYKTTPPVLDSDGSFFLYSKLTVDKSRWQQGNVFSCSVMHEALHNHYTQKSLSLSPGK
chain 2: EIVMTQSPATLSLTPGERATLSCRASQSVSSNYLSWFQQIPGQAPRLLIYGASTRATGIPARFSGSGSGTDFTLTISSLQPEDFAVYYCQQDYDLPWTFGQGTKVEIKGGGSGGGGQVQLQESGPGLVKPSETLSLTCTVSGGSISSYYWSWIRQPPGKGLEWIGRIYTSGSTNYNPSLKSRVTMSVDTSKNQFSLKLSSVTAADTAVYYCARDGWYDEDYNYYGMDVWGQGTTVTVSSGGCGGGKVAALKEKVAALKEKVAALKEKVAALKE
heavy: EVQLVESGGGLVQPGGSLRLSCAASGFTFSSYTMSWVRQAPGKGLEWVAYISIGGGTTYYPDTVKGRFTISRDNAKNTLYLQMNSLKTEDTAVYYCARQGLPYYFDYWGQGTLVTVSSASTKGPSVFPLAPSSKSTSGGTAALGCLVKDYFPEPVTVSWNSGALTSGVHTFPAVLQSSGLYSLSSVVTVPSSSLGTQTYICNVNHKPSNTKVDKRVEPKSCDKTHTCPPCPAPEAAGGPSVFLFPPKPKDTLYITREPEVTCVVVDVSHEDPEVKFNWYVDGVEVHNAKTKPREEQYNSTYRVVSVLTVLHQDWLNGKEYKCKVSNKALPAPIEKTISKAKGQPREPQVYTLPPSREEMTKNQVSLSCAVKGFYPSDIAVEWESNGQPENNYKTTPPVLDSDGSFFLVSKLTVDKSRWQQGNVFSCSVMHEALHNRYTQKSLSLSPGK
light: DIQMTQSPSSLSASVGDRVTITCKASQDVNTAVAWYQQKPGKAPKLLIYWASTRHTGVPSRFSGSGSGTDFTLTISSLQPEDFATYYCQQHYNTPLTFGQGTKVEIKRTVAAPSVFIFPPSDEQLKSGTASVVCLLNNFYPREAKVQWKVDNALQSGNSQESVTEQDSKDSTYSLSSTLTLSKADYEKHKVYACEVTHQGLSSPVTKSFNRGEC
notes: Trivalent: two CD137 MAB-6(1.1) sites, one hPD-L1 MAB-2(1.1) Fab-type site
For B10, which “EC50 (read off the curve)” value [5] is on record?
The value was about 0.08 µg/mL.

And the “EC50 (read off the curve)” value [1]?
The value was about 0.02 µg/mL.
